Data on 1 molecule can be found in article PMC10426277 (European journal of pharmacology, 2023).

Common to all, as to test: SPR
(In general: Surface plasmon resonance follows binding to a sensor surface in real time, without labels.)

The target in assay [1] is T1, Peroxiredoxin 1 mutant, last 22 amino acids of the C-terminus deleted (human, UniProt Q06830 1-177).
T1 sequence (looked up): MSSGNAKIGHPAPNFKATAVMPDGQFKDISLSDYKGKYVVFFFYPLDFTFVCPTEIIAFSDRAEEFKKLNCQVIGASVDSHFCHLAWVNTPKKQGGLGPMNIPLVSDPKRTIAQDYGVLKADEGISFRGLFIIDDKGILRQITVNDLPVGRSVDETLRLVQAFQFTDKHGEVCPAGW

Assay [2] has as its target T2, Peroxiredoxin 4 mutant, C-terminal 22 amino acids deleted (human, UniProt Q13162 38-249).
T2 sequence (looked up): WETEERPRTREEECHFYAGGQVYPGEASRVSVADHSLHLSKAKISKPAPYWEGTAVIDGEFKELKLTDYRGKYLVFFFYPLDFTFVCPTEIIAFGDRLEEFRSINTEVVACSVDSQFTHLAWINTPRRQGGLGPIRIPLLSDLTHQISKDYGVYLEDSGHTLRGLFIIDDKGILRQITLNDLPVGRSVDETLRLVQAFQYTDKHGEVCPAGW

Assay [3] deals with T3, Peroxiredoxin 1 wildtype, recombinant full-length (human, UniProt Q06830 1-199).
T3 sequence (looked up): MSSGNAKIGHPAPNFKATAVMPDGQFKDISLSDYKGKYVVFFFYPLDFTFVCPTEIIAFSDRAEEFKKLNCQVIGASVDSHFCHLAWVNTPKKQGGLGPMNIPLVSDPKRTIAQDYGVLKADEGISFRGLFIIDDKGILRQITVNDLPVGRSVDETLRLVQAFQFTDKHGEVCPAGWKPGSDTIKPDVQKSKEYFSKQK

B1: Sulfiredoxin (Srx), recombinant full-length (enzyme)
chain: not shown
As usually defined, the Kd is the free concentration of one partner at which half of the binding sites on the other are occupied at equilibrium, for simple one-to-one binding. A word on the koff: it is a measure of how fast the partners let go of each other. The kon is a measure of how fast the partners come together. In assay [1], B1 came in with a Kd of 0.175 µM, a dissociation rate constant (koff) of 0.000444 s⁻¹ and a kon of 2540 M⁻¹ s⁻¹. Also, in assay [2], the Kd came to 29.7 µM, the koff is 0.00269 s⁻¹ and the kon turned out to be 90.4 M⁻¹ s⁻¹. In assay [3], the Kd worked out at 769 µM, the koff was 0.000532 s⁻¹ and the on-rate constant (kon) is 0.693 M⁻¹ s⁻¹.
